Sequences and labels used below:
B1: Protein C-ets-1, residues 55 to 135; numbered along this chain, P14921 (parent)
chain: GFTKEQQRLGIPKDPRQWTETHVRDWVMWAVNEFSLKGVDFQKFCMNGAALCALGKDCFLELAPDFVGDILWEHLEILQKE

± gives the uncertainty stated by the source.

Variants of B1 are the subject of this series. The series is described as follows: abundance fitness (aPCA) (normalised: wild type 0, dead -1); higher = more abundant; growth selection in yeast, the domain comes from the species named. The settings on record: Homo sapiens.
As for GFTKEQQRLGIPKDPRQWTETHVRDWVMWAVNEFSLKGVDFQKFCMNGAALCALGKDCFLELAPDTVGDILWEHLEILQKE [F66T], the abundance fitness amounted to 0.037 ± 0.048.

In the case of GFTKEQQRLGIPKDPRQWTETHVRDWVMWAVNEFSLKGVDFQKFCMKGAALCALGKDCFLELAPDFVGDILWEHLEILQKE [N47K], the abundance fitness was -0.204 ± 0.082.

Turning to GFTKEQQRLGIPKDPRQWTFTHVRDWVMWAVNEFSLKGVDFQKFCMNGAALCALGKDCFLELAPDFVGDILWEHLEILQKE [E20F], the abundance fitness is -0.396 ± 0.05.

Turning to GFTKEQQRLGIPKDPRQWTETHVRDWVMWAVNEFSLKGVDFQKFCMNGAALCALGKDCFLELAPDFVGDILWEHREILQKE [L75R], the abundance fitness was -0.863 ± 0.058.

On to GFTKEQQRLGIPKDPRQWTETHVRDWVMWAVNEFSLKGVDFQKFCMNGAHLCALGKDCFLELAPDFVGDILWEHLEILQKE [A50H], for which the abundance fitness is -0.076 ± 0.079.

As for GFTKEQQRLGIPKDPRQWTETHVRDWVMWGVNEFSLKGVDFQKFCMNGAALCALGKDCFLELAPDFVGDILWEHLEILQKE [A30G], the abundance fitness is -0.197 ± 0.033.

Turning to GFTKEQQRLGIPKDPRQWTETHVRDWVMWAVNEFSLKGVDFQKFCMNGAALCALGKDCFLELAPDFVGEILWEHLEILQKE [D69E], the abundance fitness is -0.035 ± 0.062.

As to GFTKEQQRLGIPKDPRQWTETHVRDWVMWAVNEFSLKGVDFQKFCMNGAALCALGKDCFLELAPDFVGDILWEHLESLQKE [I77S], the abundance fitness turned out to be 0.065 ± 0.049.

Consider GFTKEQQRLGIPKDPRQWTETHVRDWVMWAVNEFSLKGVDFQKFRMNGAALCALGKDCFLELAPDFVGDILWEHLEILQKE [C45R], for which the abundance fitness is -0.024 ± 0.029.

As to GFTKEQQRLGIPKDPRQWTETHVRDWVMWAVNEFSLKGVDFQKFPMNGAALCALGKDCFLELAPDFVGDILWEHLEILQKE [C45P], the abundance fitness is -0.344 ± 0.038.

In the case of GFTKEQQRLGIPKDPRQWTETHVRDWHMWAVNEFSLKGVDFQKFCMNGAALCALGKDCFLELAPDFVGDILWEHLEILQKE [V27H], the abundance fitness is -0.931 ± 0.19.

For GFTKEQQRLGIPKDPRQWTETHVRLWVMWAVNEFSLKGVDFQKFCMNGAALCALGKDCFLELAPDFVGDILWEHLEILQKE [D25L], the abundance fitness came out at 0.016 ± 0.022.

For the variant GFTKEQQRLGIPKDPRQWTETHVRTWVMWAVNEFSLKGVDFQKFCMNGAALCALGKDCFLELAPDFVGDILWEHLEILQKE [D25T], the abundance fitness was -0.038 ± 0.033.

Take GFTKEQQRLGIPKDPRQWTETHVRDWVMWAVNEFSLKGVDHQKFCMNGAALCALGKDCFLELAPDFVGDILWEHLEILQKE [F41H]: the abundance fitness was found to be 0.045 ± 0.069.

For GFTKEQQRLGIAKDPRQWTETHVRDWVMWAVNEFSLKGVDFQKFCMNGAALCALGKDCFLELAPDFVGDILWEHLEILQKE [P12A], the abundance fitness is -0.46 ± 0.05.

As to GFTKEQQRLGIRKDPRQWTETHVRDWVMWAVNEFSLKGVDFQKFCMNGAALCALGKDCFLELAPDFVGDILWEHLEILQKE [P12R], the abundance fitness is -0.709 ± 0.058.

In the case of GFTKEQQRLGIGKDPRQWTETHVRDWVMWAVNEFSLKGVDFQKFCMNGAALCALGKDCFLELAPDFVGDILWEHLEILQKE [P12G], the abundance fitness is -0.427 ± 0.034.

As to GFTKEQQRLGIPKDPRQWTETHVRDWVMWAVNEFSLKGVDFQKFCMNGAALCALGKDCFLELYPDFVGDILWEHLEILQKE [A63Y], the abundance fitness is -0.299 ± 0.11.

As to GFTKEQQRLGIPKDPRQWTETHVRDWVMWAVNEFSLKGVDFQKFCMNGAALCALGKDCFLELSPDFVGDILWEHLEILQKE [A63S], the abundance fitness is -0.114 ± 0.038.

With GFTKEQQRLGIPKDPRQLTETHVRDWVMWAVNEFSLKGVDFQKFCMNGAALCALGKDCFLELAPDFVGDILWEHLEILQKE [W18L], the abundance fitness was -0.954 ± 0.077.

On to GFTKEQQRLGIPKDPRQWTETHVRDWVMWAVNEFSLKGVDFQKFCMNGAALCAVGKDCFLELAPDFVGDILWEHLEILQKE [L54V], for which the abundance fitness is -0.254 ± 0.032.

For the variant GFTKEQQRLGIPKDPRQWTETHVRDWVMWAVNEFSLKGVDFQKFCMNGAALCALGKDCFLELAPDFVGDILWEHLEIWQKE [L78W], the abundance fitness is -0.244 ± 0.047.

With GFTKEQQRLGIPKDPAQWTETHVRDWVMWAVNEFSLKGVDFQKFCMNGAALCALGKDCFLELAPDFVGDILWEHLEILQKE [R16A], the abundance fitness was -0.009 ± 0.039.

GFTKEQQRLGIPKDPFQWTETHVRDWVMWAVNEFSLKGVDFQKFCMNGAALCALGKDCFLELAPDFVGDILWEHLEILQKE [R16F]: the abundance fitness was -0.024 ± 0.066.

For GFTKEQQRLCIPKDPRQWTETHVRDWVMWAVNEFSLKGVDFQKFCMNGAALCALGKDCFLELAPDFVGDILWEHLEILQKE [G10C], the abundance fitness is -0.15 ± 0.044.

As to GFTKEQQRLGIPKDPRQWTETHVRDWVMWAVNEFSQKGVDFQKFCMNGAALCALGKDCFLELAPDFVGDILWEHLEILQKE [L36Q], the abundance fitness is -0.624 ± 0.12.

Turning to GFTKEQQRLGIPKDPRQWTETHVRDWVMWAVNEFSLKGVDFQKFCMNGAALCALGKDCFLVLAPDFVGDILWEHLEILQKE [E61V], the abundance fitness was -0.52 ± 0.048.

As to GFTKEQQRLGIPKDPRQWTETHVRDWVMWAVNEFSLKGVDFQKFCMNGAALIALGKDCFLELAPDFVGDILWEHLEILQKE [C52I], the abundance fitness is -0.029 ± 0.052.

As for GFTKEQQRLGIPKDPRQWTETHVRDWVMWAVNEFSLKGVDFQKFCMNGAALNALGKDCFLELAPDFVGDILWEHLEILQKE [C52N], the abundance fitness is -0.497 ± 0.075.

With GFTKEQQRLGIPKDERQWTETHVRDWVMWAVNEFSLKGVDFQKFCMNGAALCALGKDCFLELAPDFVGDILWEHLEILQKE [P15E], the abundance fitness is -0.974 ± 0.14.

Consider GFTKEQQRLGIPKDPRQWTETHVRDWVMWAVNEFSLCGVDFQKFCMNGAALCALGKDCFLELAPDFVGDILWEHLEILQKE [K37C], for which the abundance fitness was -0.128 ± 0.049.

GFTKEQQRLGIPKDPRQWTETHVRDWVMWAVNEFSLKGVDFQKFCMNGAALCALGKDCFCELAPDFVGDILWEHLEILQKE [L60C]: the abundance fitness is -0.091 ± 0.068.

In the case of GFTKEQQRLGIPKDPRQWTETHVRDWVMWAVNEFSLKGVDFQKFCMNGAALCALGKDCFLELAPDFVGDILWAHLEILQKE [E73A], the abundance fitness is -0.079 ± 0.054.

On to GFTKEQQRLGIPKDPRQWTETHVRDWVMWAVNEFSLKGVDFQKFCMNGAALCALGKDCFLELAPDFVGDILWWHLEILQKE [E73W], for which the abundance fitness is -0.142 ± 0.052.

For the origin of these results see the Human Domainome abundance scans (Beltran et al. 2025).
